Results: paper PMC11370418

Columns and labels:
Experiment in all cases: …
[1] = biological target: DDIT3-GS-DDIT3 synthetic AD (human)
[2] = biological target: MYB-GS-MYB synthetic AD (human)
[3] = biological target: monomeric enhanced green fluorescent protein (meGFP)

Row | fold change of Kd against single-site DDIT3 [1] | fold change of Kd against single-site MYB [2] | Kd [3] | Substance
1 | < 1.1 fold | < 1.1 fold |  | P300 KIX domain (domain or fragment)
2 |  |  | > 100 µM | TFIID domain TAF12 (from UniProt Q16514 1-161) (natural protein)
